Laboratory results from article PMC11980386.
Where “and” joins values, the source holds several entries; their conditions need not be identical. Identical values can stand only once. Blank lines part the entries; values can stand above or below the substance they belong to.

Experiments:
[1] = target: Superoxide reductase Sor (CD0827, desulfoferrodoxin) of Clostridioides difficile (Clostridioides difficile); test: SEC; Superdex S200 10/300 GL, 20 mM Tris-HCl pH 7.5, 150 mM NaCl, no glycerol; mass read against protein standards
[2] = target: Rubrerythrin Rbr (CD0825) of Clostridioides difficile (Clostridioides difficile); test: SEC; Superdex S200 10/300 GL, 20 mM Tris-HCl pH 7.5, 18% glycerol, 150 mM NaCl; mass read against protein standards
[3] = target: CD0828 of Clostridioides difficile (annotated as a glutamate synthase, with an N-terminal rubredoxin-like domain) (Clostridioides difficile); test: SEC; Superdex S200 10/300 GL, 20 mM Tris-HCl pH 7.5, 18% glycerol, 150 mM NaCl; mass read against a second set of standards (ovalbumin, conalbumin, aldolase, ferritin, thyroglobulin)

- stoichiometry N [1]: 2 and 4
Substance: Superoxide reductase Sor (CD0827, desulfoferrodoxin) of Clostridioides difficile (enzyme)

- stoichiometry N [2]: 4
Substance: Rubrerythrin Rbr (CD0825) of Clostridioides difficile (enzyme)

- stoichiometry N [3]: 2
Substance: CD0828 of Clostridioides difficile (annotated as a glutamate synthase, with an N-terminal rubredoxin-like domain) (natural protein)
